Positions count from the first letter of the chain named.

Data on two molecules can be found in paper PMC6720452, “Structural Basis for Recruitment of DAPK1 to the KLHL20 E3 Ligase” (Structure(London, England:1993), 2019).

For assay [1], the system named is full-length KLHL20. The experiment in a line: Cycloheximide chase assay in HEK293T cells. The note with it: 100 μg/mL cycloheximide, 0-6h; for Half-life / degradation of DAPK1 on KLHL20 co-expression: with vs without full-length KLHL20, Western blot normalized to GAPDH. It is filed as cell-based, human. The source says:
(§1) To confirm the identified “LPDLV” motif as a regulatory site for DAPK1 interaction and degradation, we performed immunoprecipitation and cycloheximide (CHX) chase experiments in HEK293T cells. […] We then performed a CHX chase assay to compare the degradation of DAPK1 variants in the presence or absence of full-length KLHL20.
Figure 6 Mutations in the DAPK1 “LPDLV” Motif Impair DAPK1 Binding and Degradation by KLHL20 (A) Full-length DAPK1 variants and KLHL20 Kelch domain were co-transfected into HEK293T cells as indicated. FLAG-KLHL20 Kelch domain was immunoprecipitated (IP) with anti-FLAG antibody. DAPK1 WT was robustly co-purified with KLHL20, whereas DAPK1 mutant was only recovered at the background level of the beads alone. (B) DAPK1 variants were transfected into HEK293T cells with or without full-length KLHL20 as indicated. At 24 h post transfection, cells were incubated with 100 μg/mL cycloheximide (CHX) and harvested at different time points as indicated. DAPK1 protein levels were detected by western blot and normalized to GAPDH. (C) Quantitation of (B).
For structural and biophysical studies, the Kelch domains of human KLHL20 (Uniprot Q9Y2M5 isoform 1, M303-E605) and KLHL3 (Uniprot Q9UH77 isoform 1, residues S298–L587) were cloned using ligation-independent cloning into the bacterial expression vector pNIC28-Bsa4 (GenBank accession number EF198106), which provides for an N-terminal hexahistidine tag and TEV cleavage site. For cellular assays, full length DAPK1 was cloned into pcDNA3.1(+) providing an N-terminal HA tag. The mutant DAPK1 (1336-‘LPDLV’ motif mutated to ‘LPAAV’) was created in the same vector by site directed mutagenesis. […]
HEK293T cells were cultured as described above until 60% confluency. […] Results were analyzed using Western blotting with corresponding antibodies. GAPDH level in each sample was also detected for control (anti-GAPDH antibody; Thermo Fisher, MA5-15738). Western blot band intensities were quantified using Image Studio Lite Ver 5.2 and normalized for the GADPH control.
(In western blotting, separated proteins are transferred to a membrane and probed.)

In assay [2] the test system is FLAG-KLHL20 Kelch domain. The assay can be described thus: Co-immunoprecipitation of KLHL20 and DAPK1 in HEK293T cells. It counts as cell-based, human. The following applies: FLAG-KLHL20 Kelch domain and HA-DAPK1 full-length co-transfected, 40 hours after transfection, anti-FLAG IP, Western blot.
From the text: as §1
Figure 6 Mutations in the DAPK1 “LPDLV” Motif Impair DAPK1 Binding and Degradation by KLHL20 (A) Full-length DAPK1 variants and KLHL20 Kelch domain were co-transfected into HEK293T cells as indicated. FLAG-KLHL20 Kelch domain was immunoprecipitated (IP) with anti-FLAG antibody. DAPK1 WT was robustly co-purified with KLHL20, whereas DAPK1 mutant was only recovered at the background level of the beads alone. (B) DAPK1 variants were transfected into HEK293T cells with or without full-length KLHL20 as indicated. […] DAPK1 protein levels were detected by western blot and normalized to GAPDH. (C) Quantitation of (B). […]
HEK293T cells were cultured in high glucose Dulbecco’s Modified Eagle’s Medium (Sigma-Aldrich) with 5% Penicillin Streptomycin (ThermoFisher) and 10% Fetal Bovine Serum (Sigma-Aldrich) inside a 5% CO2 incubator at 37°C. […] Results were analyzed using Western blotting (Anti-Flag antibody, Sigma-Aldrich, F1804; Anti-HA antibody, Biolegend, 901501; Anti-Myc antibody, Cell signalling, 2040S).

B1: DAPK1 WT: full-length HA-DAPK1 wild-type (protein)
chain: MTVFRQENVDDYYDTGEELGSGQFAVVKKCREKSTGLQYAAKFIKKRRTKSSRRGVSREDIEREVSILKEIQHPNVITLHEVYENKTDVILILELVAGGELFDFLAEKESLTEEEATEFLKQILNGVYYLHSLQIAHFDLKPENIMLLDRNVPKPRIKIIDFGLAHKIDFGNEFKNIFGTPEFVAPEIVNYEPLGLEADMWSIGVITYILLSGASPFLGDTKQETLANVSAVNYEFEDEYFSNTSALAKDFIRRLLVKDPKKRMTIQDSLQHPWIKPKDTQQALSRKASAVNMEKFKKFAARKKWKQSVRLISLCQRLSRSFLSRSNMSVARSDDTLDEEDSFVMKAIIHAINDDNVPGLQHLLGSLSNYDVNQPNKHGTPPLLIAAGCGNIQILQLLIKRGSRIDVQDKGGSNAVYWAARHGHVDTLKFLSENKCPLDVKDKSGEMALHVAARYGHADVAQLLCSFGSNPNIQDKEEETPLHCAAWHGYYSVAKALCEAGCNVNIKNREGETPLLTASARGYHDIVECLAEHGADLNACDKDGHIALHLAVRRCQMEVIKTLLSQGCFVDYQDRHGNTPLHVACKDGNMPIVVALCEANCNLDISNKYGRTPLHLAANNGILDVVRYLCLMGASVEALTTDGKTAEDLARSEQHEHVAGLLARLRKDTHRGLFIQQLRPTQNLQPRIKLKLFGHSGSGKTTLVESLKCGLLRSFFRRRRPRLSSTNSSRFPPSPLASKPTVSVSINNLYPGCENVSVRSRSMMFEPGLTKGMLEVFVAPTHHPHCSADDQSTKAIDIQNAYLNGVGDFSVWEFSGNPVYFCCYDYFAANDPTSIHVVVFSLEEPYEIQLNQVIFWLSFLKSLVPVEEPIAFGGKLKNPLQVVLVATHADIMNVPRPAGGEFGYDKDTSLLKEIRNRFGNDLHISNKLFVLDAGASGSKDMKVLRNHLQEIRSQIVSVCPPMTHLCEKIISTLPSWRKLNGPNQLMSLQQFVYDVQDQLNPLASEEDLRRIAQQLHSTGEINIMQSETVQDVLLLDPRWLCTNVLGKLLSVETPRALHHYRGRYTVEDIQRLVPDSDVEELLQILDAMDICARDLSSGTMVDVPALIKTDNLHRSWADEEDEVMVYGGVRIVPVEHLTPFPCGIFHKVQVNLCRWIHQQSTEGDADIRLWVNGCKLANRGAELLVLLVNHGQGIEVQVRGLETEKIKCCLLLDSVCSTIENVMATTLPGLLTVKHYLSPQQLREHHEPVMIYQPRDFFRAQTLKETSLTNTMGGYKESFSSIMCFGCHDVYSQASLGMDIHASDLNLLTRRKLSRLLDPPDPLGKDWCLLAMNLGLPDLVAKYNTSNGAPKDFLPSPLHALLREWTTYPESTVGTLMSKLRELGRRDAADFLLKASSVFKINLDGNGQEAYASSCNSGTSYNSISSVVSR
modifications: left off: HA, N-terminal, kept
notes: full-length HA-DAPK1 wild-type
In the case of B1, the “Half-life / degradation of DAPK1 on KLHL20 co-expression” value in assay [1] was “striking reduction in the half-life”. In addition, in assay [2], the “Recovery of DAPK1 in KLHL20 immunoprecipitation” value is listed as “robustly bound to KLHL20”.

B2: DAPK1 mutant: full-length DAPK1 mutant in which the critical 1,336-“LPDLV” motif was mutated to “LPAAV” (protein)
chain: B1 chain with D1338A, L1339A
modifications: left off: HA, N-terminal, kept
As to B2, the “Half-life of DAPK1 mutant compared with DAPK1 WT” value in assay [1] (with or without full-length KLHL20, Western blot normalized to GAPDH) was “exceeded that of DAPK1 WT under any of the conditions above”. The “Half-life / degradation of DAPK1 on KLHL20 co-expression” value in assay [1] is “strikingly resistant to KLHL20 co-expression”. Also, the “Recovery of DAPK1 in KLHL20 immunoprecipitation” value in assay [2] is “only recovered at a low background level”.
